Measurements as given in patent publication US20200368282A1.

Biological target: human TNFR2 (tumor necrosis factor receptor 2) (human) (UniProt P20333)
Assay: surface plasmon resonance (Pioneer SensiQ)

Chain of UniProt P20333 (P20333 23-257 S98P/S102P limits assumed): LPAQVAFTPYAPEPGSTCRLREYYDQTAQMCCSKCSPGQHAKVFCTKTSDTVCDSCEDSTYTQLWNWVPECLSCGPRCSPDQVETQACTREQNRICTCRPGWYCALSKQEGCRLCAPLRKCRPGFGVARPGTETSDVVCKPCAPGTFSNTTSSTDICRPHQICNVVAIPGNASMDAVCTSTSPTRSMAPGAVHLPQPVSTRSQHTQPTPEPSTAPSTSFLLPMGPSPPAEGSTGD

Clone MAB726 (R&D Systems, Inc.) (antibody)
Kd: 0.621 nM
